Experiments:
HEWL-Full4 (hen) [1] = biological target: HEWL-Full4 (hen) (UniProt P00698); test: BLI, mAb on AHC biosensor, 100 nM antigen, footnote c bounds the value
HEWL-Full2 (hen) [2] = biological target: HEWL-Full2 (hen) (UniProt P00698); test: as above
HEWL-Full8 (hen) [3] = biological target: HEWL-Full8 (hen) (UniProt P00698); test: as above
HEWL-Hel-108 (hen) [4] = biological target: HEWL-Hel-108 (hen) (UniProt P00698); test: as above
HEWL-Full2 (hen) [5] = biological target: HEWL-Full2 (hen) (UniProt P00698); test: BLI, mAb on AHC biosensor, 100 nM antigen
HEWL-Hel-108 (hen) [6] = biological target: HEWL-Hel-108 (hen) (UniProt P00698); test: BLI, mAb on AHC biosensor, 100 nM antigen
HEWL-Full4 (hen) [7] = biological target: HEWL-Full4 (hen) (UniProt P00698); test: BLI, mAb on AHC biosensor, 100 nM antigen, footnote d bounds the value
HEWL-Full2 (hen) [8] = biological target: HEWL-Full2 (hen) (UniProt P00698); test: as above
HEWL-Full8 (hen) [9] = biological target: HEWL-Full8 (hen) (UniProt P00698); test: BLI, mAb on AHC biosensor, 100 nM antigen, footnote e bounds the value

HyHEL-5 (antibody)
Kd (HEWL-Full4 (hen) [1]): 0.15 nM
Kd (HEWL-Full2 (hen) [2]): 0.14 nM
Kd (HEWL-Full8 (hen) [3]): 0.18 nM
Kd (HEWL-Hel-108 (hen) [4]): 0.14 nM

HyHEL-10 (antibody)
Kd (HEWL-Full2 (hen) [5]): 150 nM
Kd (HEWL-Hel-108 (hen) [6]): 0.092 nM

D1.3 (antibody)
Kd (HEWL-Hel-108 (hen) [6]): 5.7 nM
Kd (HEWL-Full4 (hen) [7]): 7.9 nM
Kd (HEWL-Full2 (hen) [8]): 2.9 nM
Kd (HEWL-Full8 (hen) [9]): 12 nM
